# The supplement of paper PMC10567573
# B1: SLC35F2 (parent)
# chain: QYLAERYKVNTPMLQSFINYCLLF
# Variants of: B1
# Assay: protein stability index of a GFP-peptide fusion (GPS, HEK-293T) (PSI 1-6); higher = more stable
# Details: c terminus: a fixed tail appended
# 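Note: lentivirally expressed fusions sorted by FACS into six bins by GFP to DsRed ratio, PSI derived from sequencing read proportions per bin multiplied by bin number.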
row,Variant,protein stability index
1,QYLAERYKVNTPMLQSFINFCLLF,3.1
2,QYLAERYKVNTPMLQSFINVCLLF,2.78
3,QYLAERYKVNTPMLQSFINMCLLF,2.09
4,QYLAERYKVNTPMLQSFINQCLLF,2.56
5,QYLAERYKVNTPMLQSFINKCLLF,2.5
6,QYLAERYKVNTPMLQSFINDCLLF,1.81
7,QYLAERYKVNTPMLQSFINWCLLF,2.03
8,QYLAERYKVNTPMLQSFINGCLLF,2.35
9,QYLAERYKVNTPMLQSFINACLLF,3.18
10,QYLAERYKVNTPMLQSFINTCLLF,2.27
11,QYLAERYKVNTPMLQSFINSCLLF,2.3
12,QYLAERYKVNTPMLQSFINHCLLF,2.97
13,QYLAERYKVNTPMLQSFINPCLLF,2.17
14,QYLAERYKVNTPMLQSFINICLLF,2.62
15,QYLAERYKVNTPMLQSFINCCLLF,2.64
16,QYLAERYKVNTPMLQSFINECLLF,2.09
17,QYLAERYKVNTPMLQSFINLCLLF,2.94
18,QYLAERYKVNTPMLQSFINNCLLF,2.41
19,QYLAERYKVNTPMLQSFINRCLLF,2.47
20,QYLAERYKVNTPMLQSFIYYCLLF,2.31
21,QYLAERYKVNTPMLQSFIPYCLLF,2.7
22,QYLAERYKVNTPMLQSFISYCLLF,2.38
23,QYLAERYKVNTPMLQSFIAYCLLF,3.55
24,QYLAERYKVNTPMLQSFIHYCLLF,2.18

row,Variant,protein stability index
1,QYLAERYKVNTPMLQSFITYCLLF,2.51
2,QYLAERYKVNTPMLQSFIFYCLLF,2.49
3,QYLAERYKVNTPMLQSFIRYCLLF,2.35
4,QYLAERYKVNTPMLQSFIKYCLLF,2.56
5,QYLAERYKVNTPMLQSFIMYCLLF,2.08
6,QYLAERYKVNTPMLQSFILYCLLF,1.71
7,QYLAERYKVNTPMLQSFIQYCLLF,3.31
8,QYLAERYKVNTPMLQSFIIYCLLF,1.48
9,QYLAERYKVNTPMLQSFIWYCLLF,2.94
10,QYLAERYKVNTPMLQSFIEYCLLF,2.22
11,QYLAERYKVNTPMLQSFIDYCLLF,2.49
12,QYLAERYKVNTPMLQSFIGYCLLF,2.7
13,QYLAERYKVNTPMLQSFIVYCLLF,2.75
14,QYLAERYKVNTLMLQSFINYCLLF,3.97
15,QYLAERYKVNTWMLQSFINYCLLF,1.29
16,QYLAERYKVNTRMLQSFINYCLLF,3.12
17,QYLAERYKVNTMMLQSFINYCLLF,3.68
18,QYLAERYKVNTTMLQSFINYCLLF,2.54
19,QYLAERYKVNTNMLQSFINYCLLF,2.72
20,QYLAERYKVNTYMLQSFINYCLLF,3.33
21,QYLAERYKVNTSMLQSFINYCLLF,2.35
22,QYLAERYKVNTQMLQSFINYCLLF,1.7
23,QYLAERYKVNTPMGQSFINYCLLF,2.08
24,QYLAERYKVNTPMQQSFINYCLLF,3.39

row,Variant,protein stability index
1,QYLAERYKVNTPMYQSFINYCLLF,3.03
2,QYLAERYKVNTPMPQSFINYCLLF,2.12
3,QYLAERYKVNTPMNQSFINYCLLF,2.12
4,QYLAERYKVNTPMDQSFINYCLLF,2.82
5,QYLAERYKVNTPMCQSFINYCLLF,2.03
6,QYLAERYKVNTPMHQSFINYCLLF,2.11
7,QYLAERYKVNTPMEQSFINYCLLF,2.45
8,QYLAERYKVNTPMTQSFINYCLLF,2.65
9,QYLAERYKVNTPMSQSFINYCLLF,1.87
10,QYLAERYKVNTPMMQSFINYCLLF,3.31
11,QYLAERYKVNTPMWQSFINYCLLF,2.4
12,QYLAERYKVNTPMAQSFINYCLLF,2.37
13,QYLAERYKVNTPMKQSFINYCLLF,2.38
14,QYLAERYKVNTPMIQSFINYCLLF,2.73
15,QYLAERYKVNTPMFQSFINYCLLF,1.69
16,QYLAERYKVNTPMVQSFINYCLLF,2.31
17,QYLAERYKVNTPMRQSFINYCLLF,2.66
18,QYLAERYKVNTPMLRSFINYCLLF,2.29
19,QYLAERYKVNTPMLVSFINYCLLF,2.86
20,QYLAERYKVNTPMLHSFINYCLLF,2.23
21,QYLAERYKVNTPMLTSFINYCLLF,3.41
22,QYLAERYKVNTPMLFSFINYCLLF,3.17
23,QYLAERYKVNTPMLGSFINYCLLF,3.36
24,QYLAERYKVNTPMLASFINYCLLF,2.71

row,Variant,protein stability index
1,QYLAERYKVNTPMLSSFINYCLLF,3.63
2,QYLAERYKVNTPMLESFINYCLLF,3.23
3,QYLAERYKVNTPMLKSFINYCLLF,1.28
4,QYLAERYKVNTPMLWSFINYCLLF,2.83
5,QYLAERYKVNTPMLCSFINYCLLF,2.95
6,QYLAERYKVNTPMLDSFINYCLLF,3.24
7,QYLAERYKVNTPMLYSFINYCLLF,3.21
8,QYLAERYKVNTPMLISFINYCLLF,1.67
9,QYLAERYKVNTPMLMSFINYCLLF,2.15
10,QYLAERYKVNTPMLPSFINYCLLF,3.78
11,QYLAERYKVNTPMLLSFINYCLLF,3.28
12,QYLAERYKVNTPMLNSFINYCLLF,2.61
13,QYLAERYKVNTPMLQSFINYELLF,1.65
14,QYLAERYKVNTPMLQSFINYVLLF,1.62
15,QYLAERYKVNTPMLQSFINYRLLF,2.05
16,QYLAERYKVNTPMLQSFINYDLLF,2.36
17,QYLAERYKVNTPMLQSFINYYLLF,3.61
18,QYLAERYKVNTPMLQSFINYFLLF,1.99
19,QYLAERYKVNTPMLQSFINYTLLF,2.11
20,QYLAERYKVNTPMLQSFINYHLLF,2.29
21,QYLAERYKVNTPMLQSFINYWLLF,2.44
22,QYLAERYKVNTPMLQSFINYPLLF,2.55
23,QYLAERYKVNTPMLQSFINYLLLF,2.52
24,QYLAERYKVNTPMLQSFINYNLLF,2.96

row,Variant,protein stability index
1,QYLAERYKVNTPMLQSFINYALLF,3.53
2,QYLAERYKVNTPMLQSFINYQLLF,2.3
3,QYLAERYKVNTPMLQSFINYKLLF,3.46
4,QYLAERYKVNTPMLQSFINYGLLF,2.33
5,QYLAERYKVNTPMLQSFINYILLF,2.06
6,QYLAERYKVNTPMLQSFINYMLLF,2.52
7,QYLAERYKVNTPMLQSFINYSLLF,2.67
8,QYLAERYKVNTPMLQSFINYCELF,3.47
9,QYLAERYKVNTPMLQSFINYCNLF,2.29
10,QYLAERYKVNTPMLQSFINYCKLF,2.83
11,QYLAERYKVNTPMLQSFINYCGLF,2.23
12,QYLAERYKVNTPMLQSFINYCALF,1.57
13,QYLAERYKVNTPMLQSFINYCILF,3.04
14,QYLAERYKVNTPMLQSFINYCFLF,3.25
15,QYLAERYKVNTPMLQSFINYCDLF,2.05
16,QYLAERYKVNTPMLQSFINYCHLF,3.33
17,QYLAERYKVNTPMLQSFINYCMLF,2.85
18,QYLAERYKVNTPMLQSFINYCCLF,1.89
19,QYLAERYKVNTPMLQSFLNYCLLF,2.96
20,QYLAERYKVNTPMLQSFGNYCLLF,1.92
21,QYLAERYKVNTPMLQSFSNYCLLF,2.34
22,QYLAERYKVNTPMLQSFTNYCLLF,2.82
23,QYLAERYKVNTPMLQSFQNYCLLF,2.48
24,QYLAERYKVNTPMLQSFNNYCLLF,2.1

row,Variant,protein stability index
1,QYLAERYKVNTPMLQSFVNYCLLF,1.34
2,QYLAERYKVNTPMLQSFRNYCLLF,3.24
3,QYLAERYKVNTPMLQSFFNYCLLF,1.98
4,QYLAERYKVNTPMLQSFENYCLLF,2.75
5,QYLAERYKVNTPMLQSFKNYCLLF,1.99
6,QYLAERYKVNTPMLQSFANYCLLF,1.93
7,QYLAERYKVNTPMLQSFDNYCLLF,3.29
8,QYLAERYKVNTPMLQSFHNYCLLF,2.9
9,QYLAERYKVNTPMLQSFYNYCLLF,2.15
10,QYLAERYKVNTPMLQSFWNYCLLF,2.53
11,QYLAERYKVNTPMLQSFCNYCLLF,3.62
12,QYLAERYKVNTPMLQSFPNYCLLF,3.3
13,QYLAERYKVNTPMLQSFMNYCLLF,2.56
14,QYLAERYKVNTPMLQSNINYCLLF,2.12
15,QYLAERYKVNTPMLQSEINYCLLF,2.3
16,QYLAERYKVNTPMLQSAINYCLLF,1.76
17,QYLAERYKVNTPMLQSGINYCLLF,2.45
18,QYLAERYKVNTPMLQSYINYCLLF,2.14
19,QYLAERYKVNTPMLQSRINYCLLF,3.78
20,QYLAERYKVNTPMLQSTINYCLLF,2.45
21,QYLAERYKVNTPMLQSIINYCLLF,3
22,QYLAERYKVNTPMLQSVINYCLLF,3.29
23,QYLAERYKVNTPMLQSDINYCLLF,1.82
24,QYLAERYKVNTPMLQSWINYCLLF,1.6

row,Variant,protein stability index
1,QYLAERYKVNTPMLQSKINYCLLF,2.65
2,QYLAERYKVNTPMLQSHINYCLLF,3.26
3,QYLAERYKVNTPMLQSMINYCLLF,3.02
4,QYLAERYKVNTPMLQSSINYCLLF,3.47
5,QYLAERYKVNTPMLQSCINYCLLF,3.45
6,QYLAERYKVNTPMLQSPINYCLLF,1.8
7,QYLAERYKVNTPMLQSQINYCLLF,2.34
8,QYLAERYKVNTPMLQLFINYCLLF,3.45
9,QYLAERYKVNTPMLQFFINYCLLF,2.11
10,QYLAERYKVNTPMLQKFINYCLLF,2.76
11,QYLAERYKVNTPMLQEFINYCLLF,2.19
12,QYLAERYKVNTPMLQTFINYCLLF,1.72
13,QYLAERYKVNTPMLQDFINYCLLF,3
14,QYLAERYKVNTPMLQQFINYCLLF,1.65
15,QYLAERYKVNTPMLQGFINYCLLF,2.22
16,QYLAERYKVNTPMLQCFINYCLLF,2.44
17,QYLAERYKVNTPMLQAFINYCLLF,2.43
18,QYLAERYKVNTPMLQHFINYCLLF,1.83
19,QYLAERYKVNTPMLQPFINYCLLF,3.19
20,QYLAERYKVNTPMLQYFINYCLLF,1.79
21,QYLAERYKVNTPMLQVFINYCLLF,3.01
22,QYLAERYKVNTPMLQWFINYCLLF,1.87
23,QYLAERYKVNTPMLQRFINYCLLF,2.63
24,QYLAERYKVNTPMLQNFINYCLLF,2.36

row,Variant,protein stability index
1,QYLAERYKVNTPMLQIFINYCLLF,3
2,QYLAERYKVNTPRLQSFINYCLLF,2.64
3,QYLAERYKVNTPCLQSFINYCLLF,3.76
4,QYLAERYKVNTPFLQSFINYCLLF,2.34
5,QYLAERYKVNTPVLQSFINYCLLF,3.22
6,QYLAERYKVNTPTLQSFINYCLLF,2.74
7,QYLAERYKVNTPALQSFINYCLLF,3.48
8,QYLAERYKVNTPWLQSFINYCLLF,1.9
9,QYLAERYKVNTPGLQSFINYCLLF,2.2
10,QYLAERYKVNTPHLQSFINYCLLF,2.59
11,QYLAERYKVNTPLLQSFINYCLLF,1.83
12,QYLAERYKVNTPSLQSFINYCLLF,2.93
13,QYLAERYKVNTPNLQSFINYCLLF,3.77
14,QYLAERYKVNTPPLQSFINYCLLF,2.69
15,QYLAERYKVNTPELQSFINYCLLF,2.99
16,QYLAERYKVNTPQLQSFINYCLLF,2.02
17,QYLAERYKVNTPKLQSFINYCLLF,2.04
18,QYLAERYKVNTPYLQSFINYCLLF,2.4
19,QYLAERYKVNTPILQSFINYCLLF,2.52
20,QYLAERYKVNTPDLQSFINYCLLF,2.2
